Assay results published in patent US20250339569A1 (3B PHARMACEUTICALS, published 2025).
Starred links: 1 amine or outer side, 2 acyl side, 3 side chain; linkers in the order of their positions; H or OH if unused. Positions of bridges follow the written chain, without caps; N, C: chain ends. Non-standard residues stand in square brackets, D forms with d. Groups on a side chain read outwards from the residue. No end group written: not given here. *: point of attachment. DOTA = O=C(O)CN1CCN(CC(=O)O)CCN(CC(=O)*)CCN(CC(=O)O)CC1; mXylylene = c1cc(C[*:1])cc(C[*:2])c1; NMeY = CN[C@@H](Cc1ccc(O)cc1)C(=O)O; tBuAla = CC(C)(C)C[C@H](N)C(=O)O; Ac6c = NC1(C(=O)O)CCCCC1; 4Amc = not defined here; APAc = not defined here; Apr = not defined here; AEEA = NCCOCCOCC(=O)O

B1: 3BP-3571 (peptide)
peptide: Ac-VSCE[dP]DWLTWSC-NH2
modifications: linker 3-12 via mXylylene
SMILES: CC(=O)N[C@H](C(=O)N[C@@H](CO)C(=O)N[C@H]1CSCc2cccc(c2)CSC[C@@H](C(N)=O)NC(=O)[C@H](CO)NC(=O)[C@H](Cc2c[nH]c3ccccc23)NC(=O)[C@H]([C@@H](C)O)NC(=O)[C@H](CC(C)C)NC(=O)[C@H](Cc2c[nH]c3ccccc23)NC(=O)[C@H](CC(=O)O)NC(=O)[C@H]2CCCN2C(=O)[C@H](CCC(=O)O)NC1=O)C(C)C
notes: also called Ac-Val-Ser-[Cys(3MeBn)-Glu-pro-Asp-Trp-Leu-Thr-Trp-Ser-Cys]-NH2
B2: 3BP-3844 (peptide)
peptide: Ac-VFCE[dP]DWLTWEC-NH2
modifications: linker 3-12 via mXylylene; not fully specified (residue 11); also: indium complexed by DOTA
notes: also called Ac-Val-Phe-[Cys(3MeBn)-Glu-pro-Asp-Trp-Leu-Thr-Trp-Glu(NH-Apr-O2Oc-InDOTA′)-Cys]-NH2
B3: 3BP-3784 (peptide)
peptide: VYCE[dP]DWLTWSC-NH2
modifications: linker 3-12 via 3MeBn; not fully specified (N-terminus); also: europium complexed by DOTA
notes: also called EuDOTA-APAc-Val-Tyr-[Cys(3MeBn)-Glu-pro-Asp-Trp-Leu-Thr-Trp-Ser-Cys]-NH2
B4: 3BP-3588 (peptide)
peptide: Ac-VRCE[dP]DWLTWSC-NH2
modifications: linker 3-12 via mXylylene
SMILES: CC(=O)N[C@H](C(=O)N[C@@H](CCCNC(=N)N)C(=O)N[C@H]1CSCc2cccc(c2)CSC[C@@H](C(N)=O)NC(=O)[C@H](CO)NC(=O)[C@H](Cc2c[nH]c3ccccc23)NC(=O)[C@H]([C@@H](C)O)NC(=O)[C@H](CC(C)C)NC(=O)[C@H](Cc2c[nH]c3ccccc23)NC(=O)[C@H](CC(=O)O)NC(=O)[C@H]2CCCN2C(=O)[C@H](CCC(=O)O)NC1=O)C(C)C
notes: also called Ac-Val-Arg-[Cys(3MeBn)-Glu-pro-Asp-Trp-Leu-Thr-Trp-Ser-Cys]-NH2
B5: 3BP-3597 (peptide)
peptide: {DOTA-APAc}-VYCE[dP]DWLHWSC-NH2
modifications: linker 3-12 via mXylylene; reading uncertain
notes: also called DOTA-APAc-Val-Tyr-[Cys(3MeBn)-Glu-pro-Asp-Trp-Leu-His-Trp-Ser-Cys]-NH2
B6: 3BP-3734 (peptide)
peptide: Ac-VRCE[dP]DWLTWE([Apr-AEEA-DOTA])C-NH2
modifications: linker 3-12 via 3MeBn; reading uncertain
notes: also called Ac-Val-Arg-[Cys(3MeBn)-Glu-pro-Asp-Trp-Leu-Thr-Trp-Glu(NH-Apr-O2Oc-DOTA′)-Cys]-NH2
B7: 3BP-3596 (peptide)
peptide: {DOTA-APAc}-VYCE[dP]DFLTWSC-NH2
modifications: linker 3-12 via mXylylene; reading uncertain
notes: also called DOTA-APAc-Val-Tyr-[Cys(3MeBn)-Glu-pro-Asp-Phe-Leu-Thr-Trp-Ser-Cys]-NH2
B8: 3BP-3599 (peptide)
peptide: {DOTA-APAc}-VYCE[dP]DWLTWRC-NH2
modifications: linker 3-12 via mXylylene; reading uncertain
notes: also called DOTA-APAc-Val-Tyr-[Cys(3MeBn)-Glu-pro-Asp-Trp-Leu-Thr-Trp-Arg-Cys]-NH2
B9: 3BP-3735 (peptide)
peptide: Ac-SRCE[dP]DWLTWE([Apr-AEEA-DOTA])C-NH2
modifications: linker 3-12 via 3MeBn; reading uncertain
notes: also called Ac-Ser-Arg-[Cys(3MeBn)-Glu-pro-Asp-Trp-Leu-Thr-Trp-Glu(NH-Apr-O2Oc-DOTA′)-Cys]-NH2
B10: 3BP-3589 (peptide)
peptide: Ac-V[NMeY]CE[dP]DWLTWSC-NH2
modifications: linker 3-12 via mXylylene
SMILES: CC(=O)N[C@H](C(=O)N(C)[C@@H](Cc1ccc(O)cc1)C(=O)N[C@H]1CSCc2cccc(c2)CSC[C@@H](C(N)=O)NC(=O)[C@H](CO)NC(=O)[C@H](Cc2c[nH]c3ccccc23)NC(=O)[C@H]([C@@H](C)O)NC(=O)[C@H](CC(C)C)NC(=O)[C@H](Cc2c[nH]c3ccccc23)NC(=O)[C@H](CC(=O)O)NC(=O)[C@H]2CCCN2C(=O)[C@H](CCC(=O)O)NC1=O)C(C)C
notes: also called Ac-Val-Nmy-[Cys(3MeBn)-Glu-pro-Asp-Trp-Leu-Thr-Trp-Ser-Cys]-NH2
B11: 3BP-3873 (peptide)
peptide: Ac-SYCE[dP]DWLTWE([Apr-DOTA])C-NH2
modifications: linker 3-12 via mXylylene; reading uncertain
notes: also called Ac-Ser-Tyr-[Cys(3MeBn)-Glu-pro-Asp-Trp-Leu-Thr-Trp-Glu(NH-Apr-DOTA′)-Cys]-NH2
B12: 3BP-3732 (peptide)
peptide: Ac-SYCE[dP]DWLTWE([Apr-AEEA-DOTA])C-NH2
modifications: linker 3-12 via 3MeBn; reading uncertain
notes: also called Ac-Ser-Tyr-[Cys(3MeBn)-Glu-pro-Asp-Trp-Leu-Thr-Trp-Glu(NH-Apr-O2Oc-DOTA′)-Cys]-NH2
B13: 3BP-3733 (peptide)
peptide: Ac-VFCE[dP]DWLTWE([Apr-AEEA-DOTA])C-NH2
modifications: linker 3-12 via 3MeBn; reading uncertain
notes: also called Ac-Val-Phe-[Cys(3MeBn)-Glu-pro-Asp-Trp-Leu-Thr-Trp-Glu(NH-Apr-O2Oc-DOTA′)-Cys]-NH2
B14: 3BP-3595 (peptide)
peptide: {DOTA-APAc}-VYCE[dP]SWLTWSC-NH2
modifications: linker 3-12 via mXylylene; reading uncertain
notes: also called DOTA-APAc-Val-Tyr-[Cys(3MeBn)-Glu-pro-Ser-Trp-Leu-Thr-Trp-Ser-Cys]-NH2
B15: 3BP-3843 (peptide)
peptide: Ac-VYCE[dP]DWLTWEC-NH2
modifications: linker 3-12 via mXylylene; not fully specified (residue 11); also: indium complexed by DOTA
notes: also called Ac-Val-Tyr-[Cys(3MeBn)-Glu-pro-Asp-Trp-Leu-Thr-Trp-Glu(NH-Apr-O2Oc-InDOTA′)-Cys]-NH2
B16: 3BP-3845 (peptide)
peptide: Ac-VRCE[dP]DWLTWEC-NH2
modifications: linker 3-12 via mXylylene; not fully specified (residue 11); also: indium complexed by DOTA
notes: also called Ac-Val-Arg-[Cys(3MeBn)-Glu-pro-Asp-Trp-Leu-Thr-Trp-Glu(NH-Apr-O2Oc-InDOTA′)-Cys]-NH2
B17: 3BP-3583 (peptide)
peptide: {DOTA-APAc}-VYCE[dP]DWLTWSC-NH2
modifications: linker 3-12 via mXylylene; reading uncertain
notes: also called DOTA-APAc-Val-Tyr-[Cys(3MeBn)-Glu-pro-Asp-Trp-Leu-Thr-Trp-Ser-Cys]-NH2
B18: 3BP-3491 (peptide)
peptide: Ac-VYCE[dP]DW[tBuAla]TWSC-NH2
modifications: linker 3-12 via mXylylene
SMILES: CC(=O)N[C@H](C(=O)N[C@@H](Cc1ccc(O)cc1)C(=O)N[C@H]1CSCc2cccc(c2)CSC[C@@H](C(N)=O)NC(=O)[C@H](CO)NC(=O)[C@H](Cc2c[nH]c3ccccc23)NC(=O)[C@H]([C@@H](C)O)NC(=O)[C@H](CC(C)(C)C)NC(=O)[C@H](Cc2c[nH]c3ccccc23)NC(=O)[C@H](CC(=O)O)NC(=O)[C@H]2CCCN2C(=O)[C@H](CCC(=O)O)NC1=O)C(C)C
notes: also called Ac-Val-Tyr-[Cys(3MeBn)-Glu-pro-Asp-Trp-Npg-Thr-Trp-Ser-Cys]-NH2
B19: 3BP-3490 (peptide)
peptide: Ac-VYCE[dP]DW[tBuAla]TWAC-NH2
modifications: linker 3-12 via mXylylene
SMILES: CC(=O)N[C@H](C(=O)N[C@@H](Cc1ccc(O)cc1)C(=O)N[C@H]1CSCc2cccc(c2)CSC[C@@H](C(N)=O)NC(=O)[C@H](C)NC(=O)[C@H](Cc2c[nH]c3ccccc23)NC(=O)[C@H]([C@@H](C)O)NC(=O)[C@H](CC(C)(C)C)NC(=O)[C@H](Cc2c[nH]c3ccccc23)NC(=O)[C@H](CC(=O)O)NC(=O)[C@H]2CCCN2C(=O)[C@H](CCC(=O)O)NC1=O)C(C)C
notes: also called Ac-Val-Tyr-[Cys(3MeBn)-Glu-pro-Asp-Trp-Npg-Thr-Trp-Ala-Cys]-NH2
B20: 3BP-3431 (peptide)
peptide: {DOTA-4Amc}-VYCE[dP]DW[tBuAla]TWAC-NH2
modifications: linker 3-12 via mXylylene; reading uncertain
notes: also called DOTA-4Amc-Val-Tyr-[Cys(3MeBn)-Glu-pro-Asp-Trp-Npg-Thr-Trp-Ala-Cys]-NH2
B21: 3BP-3503 (peptide)
peptide: Ac-VYCE[dP]DW[Ac6c]TWAC-NH2
modifications: linker 3-12 via mXylylene
SMILES: CC(=O)N[C@H](C(=O)N[C@@H](Cc1ccc(O)cc1)C(=O)N[C@H]1CSCc2cccc(c2)CSC[C@@H](C(N)=O)NC(=O)[C@H](C)NC(=O)[C@H](Cc2c[nH]c3ccccc23)NC(=O)[C@H]([C@@H](C)O)NC(=O)C2(CCCCC2)NC(=O)[C@H](Cc2c[nH]c3ccccc23)NC(=O)[C@H](CC(=O)O)NC(=O)[C@H]2CCCN2C(=O)[C@H](CCC(=O)O)NC1=O)C(C)C
notes: also called Ac-Val-Tyr-[Cys(3MeBn)-Glu-pro-Asp-Trp-Egz-Thr-Trp-Ala-Cys]-NH2

Molecular target: human carbonic anhydrase 9 (CAIX) (human, UniProt Q16790 38-459)
Test: FACS competition on HT-29 cells against tracer 3BP-2776; pIC50 category A = pIC50 >8.0
Protocol: CAIX-expressing human HT-29 colorectal cancer cells (DSMZ, RRID: CVCL_0320) were cultured in McCoys's 5A modified medium (Biochrom, #F1015) including 10% fetal calf serum (FCS), 2 mM L-glutamine, 100 U/ml penicillin and 100 μg/mL streptomycin. Cells were detached with Accutase (Biolegend, #423201) and washed in FACS buffer (PBS including 1% FCS). Cells were diluted in FACS buffer to a final concentration of 500.000 cells per ml. 200 μL of the cell suspension were transferred to a u-shaped non-binding 96-well plate (Greiner) and cells were washed in ice-cold FACS buffer.
When biotinylated compounds were used an additional incubation step with 1 μg/mL APC-Streptavidin (Miltenyi; #130-106-791) in 50 μL FACS buffer for 30 minutes on ice was performed.
Cells were washed twice with ice-cold FACS buffer and analyzed in an Attune NxT flow cytometer (Thermo Fisher). Median fluorescence intensities (MFI) of the APC/Cy5-channel were calculated by Attune NxT software.

Binder | pIC50 [pic50]
B1 | > 8
B2 | > 8
B3 | > 8
B4 | > 8
B5 | > 8
B6 | > 8
B7 | > 8
B8 | > 8
B9 | > 8
B10 | > 8
B11 | > 8
B12 | > 8
B13 | > 8
B14 | > 8
B15 | > 8
B16 | > 8
B17 | > 8
B18 | > 8
B19 | > 8
B20 | > 8
B21 | > 8
